Sequences and labels used below:
B1: Twister Ribozyme (parent)
chain: AACACUGCCAAUGCCGGUCCCAAGCCCGGAUAAAAGUGGAGGGGGCGG

In the series the parent is B1. Put plainly: self-cleavage, relative activity (ratio to wild type); higher = more cleavage; co-transcriptional.
As for C14U G36U, the self-cleavage stood at 0.421. In the case of G13U G45A it was 0.308; in that of C9U G43C, 0.151; in that of G17C C19A, 0.0513. In the case of A22U C25U it was 0.513; in that of G7U G44A, 0.19; in that of A1G G42C, 0.251. Take C25U A30C: the self-cleavage turned out to be 0.53.

As for A11C C15A, the self-cleavage was determined as 0.24.

Consider U6A A22C, for which the self-cleavage is 0.936. Then G13U G17U, with 0.101; and A32G G39U, with 0.158.

For the variant G7U U31A, the self-cleavage worked out at 0.133. For the variant C5U U37G, the self-cleavage was found to be 0.432. In the case of U37A A40G it was 0.165. Then G16U G39U, with 0.225; and A4G C15U, with 0.944. Then G41U G42A, with 0.136.

Regarding C21A G45C, the self-cleavage was 0.109.

For the variant G42C G44C, the self-cleavage is 0.17. In the case of C5A G43C it was 0.118; in that of U18C G29C, 0.0613; in that of U6A G24C, 0.399. Then C3G A33C, with 0.357; and C14A G39U, with 0.198; and A23C G44C, with 0.212. G13A C21A: the self-cleavage is 0.0879. In the case of A22U G43C, the self-cleavage was 0.129. In the case of A10G A40U it was 0.157.

Take A1G G44A: the self-cleavage turned out to be 0.309. Regarding C8U G47U, the self-cleavage is 0.345. In the case of G43U G44A it was 0.722; in that of G17C G28U, 0.0606. In the case of G29U G47C it was 0.364; in that of A22C A33C, 0.955. G16A C21U: the self-cleavage came out at 0.0697. Then A35G G42C, with 0.141; and A40U G42C, with 0.157.

For the variant A4G G24A, the self-cleavage worked out at 0.0846. Then A22U A23G, with 0.0873; and A11G G43U, with 0.374; and C9U A34U, with 0.477. Then A11C C46U, with 0.736. Then A30G G41U, with 0.772; and C3G G48U, with 0.549; and A23U A34G, with 0.0731. In the case of C20U A35G, the self-cleavage turned out to be 0.664. Then G13A A34C, with 0.173; and C9U C25A, with 0.1. Consider A10G G39A, for which the self-cleavage is 0.564. In the case of A2G C5G it was 0.144; in that of A1C C46U, 0.18; in that of C20A A40U, 0.106. In the case of A1C G45C it was 0.176. In the case of U18C G42A it was 0.0575; in that of C15A G24A, 0.0695. On to G39U A40G, for which the self-cleavage is 0.128. Regarding C3G A32G, the self-cleavage worked out at 0.434. Regarding C14G C15U, the self-cleavage was found to be 0.401. Then A34U C46U, with 0.84; and U12A, with 1.11; and C5G A23C, with 0.0471. In the case of G29A G45U it was 0.578; in that of A2U G36U, 0.113. Then U18A G36U, with 0.172. For the variant A33C G45U, the self-cleavage turned out to be 0.71. As for A11U G38U, the self-cleavage came to 0.875. Then A2G U6C, with 0.103. In the case of A34U G44A, the self-cleavage was 0.893. As to C9A G13A, the self-cleavage came out at 1.09. Then G28C G43A, with 0.228; and A1C C8U, with 0.193; and U12G C21A, with 0.0849. In the case of C15A U18G it was 0.089.

C5A A23G: the self-cleavage is 0.0488. In the case of A10G C14G it was 0.0768; in that of G13A G41U, 0.131.

Consider A1U C21A, for which the self-cleavage was found to be 0.0801. In the case of C9G A30C it was 0.649; in that of U12G G47U, 0.703. For the variant G17A U37G, the self-cleavage came out at 0.175. In the case of A40U G45U it was 0.177; in that of A4C G36C, 0.0766; in that of C3U G41C, 0.099. Then A35C G45U, with 0.855; and C5U A40U, with 0.146; and U12C C26A, with 0.658. In the case of G29A G41A it was 0.452; in that of G28C G48U, 0.543; in that of C21U A23U, 0.0638. Turning to A34C C46U, the self-cleavage stood at 0.251. For the variant A32U A35U, the self-cleavage was found to be 1.13.

As for U31C A35U, the self-cleavage is 1.06. In the case of A22G A32C it was 0.35.

Regarding C9G C26A, the self-cleavage amounted to 0.115.

Turning to U6C U37A, the self-cleavage came to 0.131. Then C14G A34C, with 0.0831. Then A11C C14A, with 0.69; and G13U U37G, with 0.119; and A10C G41U, with 0.653. In the case of C5A C26G it was 0.0639. As for C20A G36U, the self-cleavage was 0.0906. In the case of C14U G41A it was 0.698. Then C3U C15G, with 0.125.

On to A34U G47C, for which the self-cleavage came out at 0.247.

Take C26G A40U: the self-cleavage was found to be 0.12. In the case of C21G G29A it was 0.0338; in that of C26A A34U, 0.177; in that of A23G G43U, 0.0895. Then A33C G39U, with 0.21. C20U: the self-cleavage amounted to 1.01.

Consider U18C G47C, for which the self-cleavage came to 0.162. For the variant G7A C27A, the self-cleavage was found to be 0.112.

In the case of C9U G24A, the self-cleavage amounted to 0.0648. In the case of A4G A30C it was 0.736.

Turning to A23G C27A, the self-cleavage came to 0.147. As for C5G A10U, the self-cleavage came to 0.69. Then G7A G17A, with 0.083; and A11U A22U, with 0.908. In the case of U18A C20U it was 0.168. In the case of C26G A34C it was 0.0761; in that of C15U G45C, 0.64; in that of C8A G13A, 0.359.

As for A11G G13A, the self-cleavage was 0.745. Then G7C G42A, with 0.062.

U6G U31A: the self-cleavage amounted to 0.169.

On to C25U G48U, for which the self-cleavage was found to be 0.813. As to A1U C20U, the self-cleavage was found to be 0.0599. In the case of A35C G42U it was 0.415.

For the variant A34C G45A, the self-cleavage was found to be 0.144. In the case of A35U U37A it was 0.834.

In the case of C8U G36U, the self-cleavage stood at 0.109. Then C8U G36A, with 0.18. Then C26G A32C, with 0.141.

With G13U G41A, the self-cleavage amounted to 0.0904. In the case of A40C G43U it was 0.136; in that of G36A G42A, 0.141.

In the case of A32C G38A, the self-cleavage is 1.03. In the case of C26U A30U it was 0.556. Then U12G C27A, with 0.373; and G24A G48A, with 0.121. Consider A2G A10C, for which the self-cleavage was determined as 0.322. Turning to U31G G36C, the self-cleavage was 0.712. In the case of A4U A10G, the self-cleavage was found to be 0.125. A33U A40U: the self-cleavage is 0.157. In the case of C21U G28U it was 0.102; in that of G16U C21U, 0.105. Then A34G G38U, with 0.677.

Regarding U12C U18C, the self-cleavage was found to be 0.564. In the case of G24U U31A it was 0.113; in that of C25A C46G, 0.0534. G7U C8G: the self-cleavage came out at 0.114.

With G29A U31G, the self-cleavage turned out to be 0.926. Then G13C C14G, with 0.334; and G7A G39C, with 0.141; and C5G C20G, with 0.0308. In the case of A30G G42C it was 0.571. In the case of G13A C26U it was 0.142; in that of A22C G41A, 0.326; in that of A10G G24U, 0.18. Consider C14A C15U, for which the self-cleavage is 0.746.

As to A2G C20A, the self-cleavage stood at 0.0649. In the case of C8U A23G it was 0.107; in that of G44C G47U, 0.244. Turning to G29C G44A, the self-cleavage came to 0.791. In the case of A11U G13U it was 0.694; in that of U37A G43C, 0.149.
